Source: the domain aggregation screens of Martell et al. (2025)

assay: soluble fraction after stress (log2 fold change); higher = more stays soluble; pooled small domains, quantitative proteomics; conditions: stress: 75 degC
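Also: 20 min heating vs room temperature control held 20 min.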

| Sequence | soluble fraction (log2) |
| --- | --- |
| HMAKPVKSPLPGSVIKVAVKVGQQIKRGDLLLTLESMKMENSILAEKDGVVKNIHVQAGQSVMQDDLLLDI | -0.88 |
| HMAKPVNISAEPYHYDPTRFRVTFELPRLSDQPRKRIRKVAPAGLDREQALAWAKRLEREVLHELLR | -1.08 |
| HMAKVSVNIILKDGVDQTTFVNDVTSNTEVDLKNQLISLPQMVVLSVEEDYINTLKSHSSISILELDE | -0.296 |
| HMALALDDLFDRYEQLQDQSLGDKTEEGQELRAMIRAYIEQEGLSVRVTRSTTNRELLELIEQEMEG | -0.306 |
| HMALENTDLYAHLRLSHTASVPEIQAALSARVKHMPLQTWLLARKWLLHPRLRERYDGMWSVRFGA | -2.87 |
| HMALGRTGEVYLPIPAGRAGHGKISITLQGALREVDAVTAGEALPRGTSVRVVDVAGNGVLLVEK | -0.206 |
| HMALHDTLSYEEYLDLGLNGKADSAEKRELVAHALHLGRPNAKTLYKRLNMLQLNRKDVAALLEQ | 0.097 |
| HMALHLPTTTINGRQYYYFKSKEKITVYGLSKRLGLTRQEIVEHNPSAVDGIKRGSTLYFPVDEFAD | -2.12 |
| HMALLKRQDEILMYLYTQNKWITGNELAQLFHVSLRTIRNDISFINTEKSNSVLSNRNKGYHIAKDFVYNE | -1.26 |
| HMALPDSEKRQWLVDEVNERGLKLPDDVLEYLFARVGRSQAHLVDVIEKLDFESLAQSRKLTIPFVREVLK | -0.225 |
| HMALPRYFFRTRENGAVLFKTPVNNHQNRLEMHQIAAINIRNETVKPLGDTVLTDEETELIADWMRERKTV | -0.782 |
| HMALSVRNRMSDLLRMLGDGEFHRFENLFSLEEGRHGIVVTFLAMLELAKEQLVEISQGESLAPIYLKSLA | -1.05 |
| HMAMDVKEVLLPGVGLRYEFDNSDGDRIGVIAKRSGDFEVVRYTAADRDAAQPMFRLTDEEADALAQILGA | 0.224 |
| HMAMDYYAIGQRIRKFRKAHDWSQEELAEKVEISTTHMSHIETGSTKLSLPVLVSLANVLDVRTDDLLF | -3.81 |
| HMAMKFQDIVRQKRKELGLTQEQAARRLGVSPAAVSKWESGQSLPDTPLFAPLARLLHTDLNTLLSFE | -1.21 |
| HMAMTQNVDLAGRIVFNEKKEEVFNFGKHKGRSVAEVFEKEPSYYDWMLKGDFPAETKQVLTALRLRGLS | -0.186 |
| HMAMTRTEYLNQLKHYLKRLPHTDYEEAMDYFKEYFEEAGPENEAQVIQDLGNPKEAAYEILSQLL | -0.0595 |
| HMANDNFPLKLGSKGPRVLQLKTMLIQSLSNDALPKGRSSDAFDSELEALLSRNNLPTVIDETNFRVLTK | -0.0514 |
| HMANFGSILRNLRISRDITQSELAAKLGVSRSTVGMYETGAREPDFEAMEAIADTFNVDMDYLVGRSQ | -0.258 |

| Sequence | soluble fraction (log2) |
| --- | --- |
| HMANLAQITKTNAVALALKDVGAYNSEDLMKFIDLDKVVLGEDGKPQLEDTINSLKESSPYLFQ | 0.134 |
| HMANMTAKQINMFGDKLSRDKDFQSYYIAKSGDSREQYAQDIKGKLLDPFYVNAWMPYLEKIGFVPS | 0.0935 |
| HMANPEFAGYINGKPYFGPTHQHRGVKMLGATHTRNPHPLVWDSIAESLANYDSRFRWSGGQIL | -0.853 |
| HMANTAKVNVDTANLRETADENSKILKQLSLNDNLEVVEETGDWYKVKNSNVTGYVRKDLVTVEN | 0.31 |
| HMANTLDPMDLKQIISLHLDGFSNRKIGATLGISRNTVNTYMRLFSVSDYALKELLTLDNATLDKLFPS | -2.06 |
| HMANYYEILGVKHDATEAEIKAAYKQAAKSAHPDAGGSNEKMQEVNAAWEVLGNAQKRAEYDARMA | 0.173 |
| HMAPAGGITRQDLFAWGLMGGEGSREKRQQLKKSLGLPSHLGTSGFLDALNLIATRDQVEALLHK | -0.564 |
| HMAPAILTVQVKPDKIREIIGPGGKMIRMIQSETNTRVEVDDSGLVKIAAVSKEEGEAALKMVSDITME | 0.331 |
| HMAPDAPDGFVHRWIRAEMLGQEDKSNVHRRMQEGYELVRADEYPDSDLPVAEGRYAGIIGVGGLLLARF | -0.206 |
| HMAPDDTAVWSAFIGWFRTAPDGPNPLGAYAAKLGEEGLDAAEVGRRMTVIVRLFAEKPEGAEVFYDRTYA | -2.66 |
| HMAPDYYALLGVPRNATTAEVRKAFRGKALEQHPDRGGDEESFRLLSKAYDVLSDSERRKYYDRTG | -0.0151 |
| HMAPEKLVHELVGLSLRAGNLDLLAATLSAHKTVLSKESTAEYVKAGLAIEPNHLPLRVLAEQDLGWS | -1.17 |
| HMAPFVIQQGQDVRLISKGPGFAVSNDGKALTNAAEGQLARARTANGQTVSGIARQGGIIEIA | -0.0321 |
| HMAPGIGDSKYFSHIYEMKHIDTIIDNDKGDRLIEHFEIQDTPFIFTKHWTSAFGFSKRQQEIITDYLSYF | 0.12 |
| HMAPGVHVEALLPYTAGSLVSQIREYGNVDAVEYRDTGILLQADVDERLAAQIMDQALEDPV | 0.0715 |
| HMAPLADQIVDLLKEHDGFLPLHDNSSPEDIRATVGTSKKAFKQAIGGLFREKRIVIGPTGIRLIS | -0.694 |
| HMAPLATIHVSSLSQKPFYLYGTFEDRRGNHLFFLEQIMGENKSIPVAMPSSAINPKIHASLTPPKG | -0.494 |
| HMAPLQDENGDLTFSYNGKTYTVNVNSEEDRNSFAEDFNKENGKKFSWFKERAGLQHYVFYDTEM | -0.00699 |
| HMAPLVTLEADGNGAVKLSNLAGHSIREVAGALGGAGLSLIPVGSGTSWKQNPAPGTVLHSGDTVTVYF | 0.177 |
